Series [1] concerns the target Full-length FLAG-tagged recombinant SMCHD1 (mouse) (UniProt Q6P5D8). In words: negative-stain electron microscopy; purified FLAG-rSMCHD1, 100 ng/ml, 0.75% uranyl formate, 80 kV.
Series [2] concerns the molecule itself. The series is described as follows: SEC; affinity-purified wild-type and mutant hinge domains on a Superdex 75 10/300 column, 0.5-ml fractions, A280 and Coomassie-stained SDS-PAGE. A general note: In gel filtration, larger molecules generally elute earlier.

As a reminder, the stoichiometry N is a count of units in the complex or per binding partner.

For “Full-length FLAG-tagged recombinant SMCHD1, Q6P5D8 1-2007”, the stoichiometry N in series [1] was found to be 2.

B1: SMCHD1 hinge domain, recombinant wild type (residues 1616 to 1963) (domain or fragment, mouse, UniProt Q6P5D8 1616-1963, looked up)
chain: NDVKKQQQMAALTKEKDELSKSITMYRSLFDANKQLVDEMKCQAEEAKLKETQLRNELKAYNIDIPATQQTTHIEALLEKKITEQNELKKRPRRLCTLPNYTKRSGDILGKIAHLAQIEDDRAAMVISWHLASDMDCVVTLTTDAARAIYDETQGRQQVLPLDSIYRKTLPDWKRPLPHFRNGKLHFKPFGNPVFARDLLTFPDNIEHCETVFGMLLGDTIILDNLDAANHYRKEVVKITHCPTLLTRDGDRIRSNGKFGGLQNKAPPMDKLRGMVFGAPVPKQCVVLGKQIDLIQQYRTALYRLSSVNEDLDNQLQYLHTPDMKKKKQELDEQEKSLKRIEQKLGMT
notes: SMCHD1 SMC hinge domain, mouse, residues 1616 to 1963; Cloned into pET28a; also called wild-type HD; WT hinge; source: E. coli BL21-RosettaBlue, purified (Talon resin)
Take B1: the “stoichiometry N” value in series [2] amounted to 2.

Values taken from publication PMC4628070, “Independent Mechanisms Target SMCHD1 to Trimethylated Histone H3 Lysine 9-Modified Chromatin and the Inactive X Chromosome” (Molecular and Cellular Biology, 2015).
